The values that follow come from US20170247475A1 (Boehringer Ingelheim, published 2017).

Substitutions are numbered along the chain they refer to.

For assay [1], the target named is T1, recombinant human VEGF165 (human, UniProt P15692-4 27-191).
T1 construct: also called hVEGF165; rhVEGF165
Briefly: ELISA screen, periplasmic extract on coated hVEGF165. An excerpt: Wells are blocked with a casein solution (1%). After addition of typically a 10-fold dilution of the periplasmic extracts, VHH binding is detected using a mouse anti-myc (Roche) and an anti-mouse-HRP conjugate (DAKO). Clones showing ELISA signals of >3-fold above background are considered as VEGF binding VHHs.

Assay [2] has as its target T1, recombinant human VEGF165. Put plainly: Biacore, periplasmic extract on hVEGF165 chip. As for the experimental part:
(§1) Dissociation rates of inhibitory VHHs are analyzed on Biacore (Biacore T100 instrument, GE Healthcare). HBS-EP+ buffer is used as running buffer and experiments are performed at 25° C. […] After immobilization, surfaces are deactivated with 10 min injection of 1M ethanolamine pH8.5. A reference surface is activated and deactivated with respectively EDC/NHS and ethanolamine. Periplasmic extracts of VHHs are injected at a 10-fold dilution in running buffer for 2 min at 45 μl/min and allowed to dissociate for 10 or 15 min. Between different samples, the surfaces are regenerated with regeneration buffer. Data are double referenced by subtraction of the curves on the reference channel and of a blank running buffer injection. […] is evaluated by fitting a two phase decay model in the Biacore T100 Evaluation software v2.0.1.

The target in assay [3] is T1, recombinant human VEGF165. Briefly: Biacore, periplasmic extract on hVEGF165 chip, two phase decay fit. Here is the method:
as §1
A general note: SPR reads the build-up and loss of mass on a sensor chip optically.

T1 sequence (P15692 other isoform, or with tags, fused parts or gaps limits assumed): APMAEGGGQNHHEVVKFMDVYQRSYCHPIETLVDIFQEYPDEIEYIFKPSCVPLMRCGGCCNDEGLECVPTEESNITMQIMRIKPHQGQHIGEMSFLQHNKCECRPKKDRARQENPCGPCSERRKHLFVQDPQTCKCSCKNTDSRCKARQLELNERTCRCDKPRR

B1: VEGFBII88A01 (VHH)
VHH: KVQLVESGGGLVQAGGSLRLSCAASERTFSNYAMDWFRQAPGKEREFVAAITRSGGGTYYADSVKGRFTISRDNAKNTVYLQMNSLKPEDTAVYYCAATRSSTIVVGVGGMEYWGKGTLVTVSS
With B1, in assay [1], the binding result is listed as “binds”.

B2: VEGFBII89B08 (VHH)
VHH: EVQLVESGGGLVQPGGSLRLSCAASGTTSSIFAMRWYRQAPGKQRELVASITRSSITTYADSVKGRFTPSRDNAKNTVSLQMNSLKPEDTAVYYCNAAIRPELYSVVNDYWGQGTQVTVSS
On to B2, for which the binding result in assay [1] is “binds”.

B3: VEGFBII89G09 (VHH)
VHH: B2 VHH with P69L
Regarding B3, in assay [1], the binding result is recorded as “binds”.

B4: VEGFBII88G11 (VHH)
VHH: EVQLVESGGGLAQAGGSLRLSCAASGRTFSGSDMGWFRQSPGKEREIVAAIRLSGSITYYPDSVKGRFTISRDNAKNTVYLQMNSLKPEDTAVYYCAARSTYSYYLALADRGGYDYWGQGTQVTVSS
In the case of B4, the binding result in assay [1] was “binds”.

B5: VEGFBII88H01 (VHH)
VHH: EVQLVESGGGLVQAGGSLRLSCVASGFTLGTYAIGWFRQAPGKEREAVSCMSAGDSIPWYTASVKGRFTTSTDNARNTVYLQMNSLKPEDTAHYYCAAARYHGDYCYYEGYYPFWGQGTQVTVSS
B5: the binding result in assay [1] is given as “binds”.

B6: VEGFBII89B04 (VHH)
VHH: EVQLVESGGGLVQAGGSLRLSCAASTSISSTNFMGWYRQAPGKQRELVATITSSSITNYVDSVKGRFTISRDNAKNTVYLQMTSLKPEDTAVYYCHARWRWSDVEYWGKGTLVTVSS
As to B6, the binding result in assay [1] is given as “binds”.

B7: VEGFBII89D04 (VHH)
VHH: EVQLVESGGGLVQPGGSLRLSCATSGLTFSDYNLGWFRQAPGKERQFVAVISWRDSFAYYAEPVKGRFTISRDNAKNTVYLQMNSLKPEDTAVYYCAADRVSSRLVLPNTSPDFGSWGQGTQVTVSS
Regarding B7, the binding result in assay [1] is “binds”.

B8: VEGFBII88A02 (VHH)
VHH: EVQLVESGGGLVQAGGSLRLSCAASGFTFGDYDIGWFRQAPGNEREGVSCITTDVGTTYYADSVKGRFTISSDNAKNTVYLQINDLKPEDTAIYYCAVDTQDLGLDIFCRGNGPFDGWGQGTQVTVSS
As to B8, the binding result in assay [1] is reported as “binds”.

B9: VEGFBII87B07 (VHH)
VHH: EVQLVESGGGLVQPGGSLKLSCTASGFTFSTSWMHWVRQAPGKGLEWVSSIPPVGHFANYAPSVKGRFTISRDNAKNTLFLQMNSLKSEDTAVYYCAKDSAGRTKGQGTQVTVSS
Take B9: in assay [1], the binding result was “binds”.

B10: VEGFBII88E02 (VHH)
VHH: EVQLVESGGGLVQPGGSLRLSCVASGFRLDDYAIGWFRQAPGKEREAVSCISSSDTSIDYTNSVKGRFTFSRDNAKNTVYLQMNSLKPEDTAVYYCAAAFRCSGYELRGFPTWGQGTQVTVSS
Turning to B10, the binding result in assay [1] is reported as “binds”.

B11: VEGFBII86F11 (VHH)
VHH: EVQLVESGGGLVQAGDSLRLSCFTSARTFDTWAMAWFRQAPGKEREFISAISWSGSMTYYTDSVKGRFIISRDNAQNTLFLQMNNTAPEDTAVYYCAAKTVDYCSAYECYARLEYDYWGRGAQVTVSS
For B11, the binding result in assay [1] is “binds”.

B12: VEGFBII01E07 (VHH)
VHH: EVQLVESGGGLVQAGDSLRLSCVATGRTFRASDMGWFRQAPGKEREFVAAINWSGLSTFYTDSVKGRFTISRDNDNGALYLQMNTLKPEDTAVYSCAAGRIPSSSRFSSPAAYASWGQGTQVTVSS
Regarding B12, the binding result in assay [1] is on record as “binds”.

B13: VEGFBII88G05 (VHH)
VHH: EVQLVESGGGLVQPGASLRLSCAASGDGFTLYNMGWFRQAPGKEREFVAAITSSPMSTYYADSVKGRFSISINNDKTTGFLQMNVLKPEDTGVYFCAAPEGSFRRQYADRAMYDYWGQGTQVTVSS
Regarding B13, the binding result in assay [1] is given as “binds”.

B14: VEGFBII89F09 (VHH)
VHH: EVQLVESGGGLVQAGDSLRLSCAASGRTFNNAIMGWFRQAPGQEREFVAAMNWRGGPTYYADSVKGRFTISGDNTKNTVFLQMNFLKPEDTAVYYCAADEDLYHYSSYHYSRVDLYHYWGQGTQVTVSS
As to B14, the binding result in assay [1] is “binds”.

B15: VEGFBII23A03 (VHH)
VHH: EVQLVESGGGLVQPGDSLKLSCVASGRTFSSYSMGWFRQAQGKEREFVVAISSGGYIYDSVSLQGRFTISRDNTKNTVYLQTPSLKPEDTAVYYCAASRAYGSSRLRLADTYDYWGQGTQVTVSS
notes: periplasmic extract
In the case of B15, the “Binding level (RU)” value in assay [2] was 487 RU. Moreover, in assay [3], the “% fast” value was found to be 15%.

B16: VEGFBII23E05 (VHH)
VHH: B15 VHH with G8E, F29S
notes: periplasmic extract
For the molecule B16, the “Binding level (RU)” value in assay [2] came to 275 RU. Also, the “% fast” value in assay [3] stood at 18%.

B17: VEGFBII22E04 (VHH)
VHH: B15 VHH with F29S, Y56S, G102A
notes: periplasmic extract
B17: the “Binding level (RU)” value in assay [2] worked out at 520 RU. Besides, the “% fast” value in assay [3] was found to be 14%.

B18: VEGFBII27D08 (VHH)
VHH: B15 VHH with P14T, K19R, V23A, I57K, Q64E, K75Q, T82I, P83N, S104G
notes: periplasmic extract
As to B18, the “Binding level (RU)” value in assay [2] came to 225 RU. Further, in assay [3], the “% fast” value came out at 13%.

B19: VEGFBII30C09 (VHH)
VHH: B15 VHH with V23I, F29S, K43Q
notes: periplasmic extract; also called VEGFBII30009
Regarding B19, the “Binding level (RU)” value in assay [2] is 264 RU. Besides, the “% fast” value in assay [3] was 19%.

B20: VEGFBII23D11 (VHH)
VHH: B15 VHH with K19R, V23A, A24F, G35A, Y56F, S60A, Q64E
notes: periplasmic extract
With B20, the “Binding level (RU)” value in assay [2] amounted to 510 RU. For the same molecule, in assay [3], the “% fast” value was 13%.

B21: VEGFBII23A08 (VHH)
VHH: B15 VHH with P14T, K19R, S53N, I57K, Q64E, T82I, P83N
notes: periplasmic extract
Consider B21, for which the “Binding level (RU)” value in assay [2] was 502 RU. Further, in assay [3], the “% fast” value is 19%.

B22: VEGFBII40F02 (VHH)
VHH: B15 VHH with V23A, A24F, G35A, Y56F, S60A, Q64E, D89G
notes: periplasmic extract
In the case of B22, the “Binding level (RU)” value in assay [2] was found to be 258 RU. Further, the “% fast” value in assay [3] was 20%.

B23: VEGFBII27G07 (VHH)
VHH: B15 VHH with F29S, K43Q
notes: periplasmic extract
Regarding B23, the “Binding level (RU)” value in assay [2] stood at 471 RU. The “% fast” value in assay [3] came out at 18%.

B24: VEGFBII22A11 (VHH)
VHH: B15 VHH with V23A, A24F, G35A, Y56F, S60A, Q64E
notes: periplasmic extract
For B24, the “Binding level (RU)” value in assay [2] was found to be 461 RU. The “% fast” value in assay [3] was determined as 12%.

B25: VEGFBII86G11 (VHH)
VHH: EVQLVESGGGLVQAGGSLRLSCAASGLTFSLYTVGWFRQAPGKEREFVAYISRSGSNRYYVDSVKGRFTLSRDNAKNTVDLQMNSLKTEDTAVYYCAATSRGLSSLAGEYNYWGRGTQVTVSS
Consider B25, for which the binding result in assay [1] is listed as “binds”.

B26: VEGFBII86G08 (VHH)
VHH: EVQLVESGGGLMQTGDSLRLSCAASGLRFTSTNMGWFRQGPGKEREFVAAITLSGTTYYAEAVKGRFTISRDNDKNTVALQMNSLKPEDTAVYYCGADPSYYSTSRYTKATEYDYWGQGTQVTVSS
In the case of B26, the binding result in assay [1] is given as “binds”.

B27: VEGFBII01C02 (VHH)
VHH: EVQLVESGGGLVQAGGSLRLSCTASGGSFSSYGMGWFRQSPGKEREFVSAISEYSNTYCSDSVRGRFTISRDNTKNTVYLQMNSLTPDDTAIYYCAASPTILLTTEQWYKYWGQGTQVTVSS
For B27, the binding result in assay [1] is reported as “binds”.

B28: VEGFBII89H08 (VHH)
VHH: EVQLVESGGGLVQAGGSLRLSCAASGGSFSSYAPGWFRQAPGKEREFVAAFTRSSNIPYYKDSVKGRFTISRDNAHTVYLQMNSLKPEDTAIYYCAVNLGSTWSRDQRTYDYWGQGTQVTVSS
With B28, the binding result in assay [1] is recorded as “binds”.

B29: VEGFBII86G10 (VHH)
VHH: EVQLVESGGGLVQAGGSLRLSCAASGRTFNTYTMGWFRQTPGTEREFVAAIRWTVNITYYADSVKGRFTISRDIVKNTVYLQMNSLKPEDTAVYYCAAQTSAPRSLIRMSNEYPYWGQGTQVTVSS
Take B29: in assay [1], the binding result is recorded as “binds”.

B30: VEGFBII88B02 (VHH)
VHH: EVQLVESGGGLVQPGGSLRLSCTASGLNLDDYAIGWFRQAPGKEREGVSCISSYDSVTYYADHVKGRFTISRDSAKNTLYLQMNSLSIEDTGVYYCAAEREQLRRRESPHDELLRLCFYGMRYSGKGTLVTVSS
With B30, the binding result in assay [1] is reported as “binds”.

B31: VEGFBII88G03 (VHH)
VHH: EVQLVESGGGLVQAGGSLRLSCAASGGTFSSLAVGWFRQAPGKEREFVARITWSGATTYYADAVKDRFTISRDNAKNTMYLQMNSLKPEDTAVYYCAADRSPNIINVVTAYEYDYWGQGTQVTVSS
B31: in assay [1], the binding result is “binds”.
